The target of assay [1] is human PKA-Cα (PKA catalytic subunit alpha), purified, used in fluorescence polarization (human, UniProt P17612 1-351). Description: fluorescence polarisation. (Fluorescence polarisation rises when a labelled molecule tumbles more slowly, as on binding a larger partner.)
For assay [2], the target named is mouse PKA-Cα (PKA catalytic subunit alpha), purified (mouse, UniProt P05132 1-351). As to the kind of experiment: fluorescence polarisation.

Where no end group is shown, it is not given here. 3xPEG = linker of three PEG units

Broadly, the Kd is the free concentration of one partner at which half of the binding sites on the other are occupied at equilibrium, for simple one-to-one binding.

{FAM-3xPEG}-SADVSSAWAQHVTKMVARRGAILP [FAM-labeled standard SMO PKI peptide (SMO residues 615–638)]: the equilibrium dissociation constant (Kd) in assay [1] was 823 nM; in assay [2], 911 nM.

Source of the values: article PMC9696579 (Nature structural & molecular biology, 2022).
